Measurements published in patent publication US10239923B2, “Specific amyloid beta binding peptides and the use of same for treating and diagnosing alzheimer's dementia” (Forschungszentrum Juelich GmbH, priority 2015, dated 2019).
Square brackets hold non-standard residues; d marks the D form.

Biological target: T1, Aβ1-42 monomers versus Aβ1-42 oligomers and fibrils (biotinylated, D-enantiomeric, immobilized) (Homo sapiens, UniProt P05067)
T1 construct: biotinylated, D-enantiomeric Aβ1-42 monomers
Assay: Monoclonal phage ELISA
Format: binding
Settings: individual phage clones; species immobilized at 320 nM; absorption at 450 nm normalized with 6E10 control; higher = more monomer-specific
Description: The specificity of the peptide results from the difference in % of the absorption values for the target molecule or the bait (for example A beta monomer) and the normalized absorption values for the competitors (for example A beta oligomers and fibrils) in the monoclonal phage ELISA.
The absorption values then constitute the affinity of individual phage clones for a particular immobilized A beta species. Here, the specificity is not dependent on the strength of the affinity, but instead only on the difference of the affinities between the species. […] The terms “competitors” and “target molecule” or “bait” are defined as specified below.
A method for normalizing the obtained values should therefore be performed. From all absorption values of the individual phage clone in the monoclonal phage ELISA, the values of the phage antibodies tested for cross-reaction can be used as background. This occurs in accordance with the previously immobilized species. The signal values of the phage antibody from the reaction trays with immobilized Aβ1-42 oligomers for this purpose can be removed from the signal values of the individual phage clone from the reaction trays with immobilized Aβ1-42 oligomers. A similar process is then carried out for Aβ1-42 monomers. In this way, a possible background signal of the phage antibody can initially be calculated from the signals of the individual phage clone. […] Only in this way is an equal interpretation of the results particularly in respect of the assessment of the specificity of the individual phage clone possible (see FIG. 2).
The affinity of individual phage clones with respect to the target molecule and the competitors was examined by means of ELISA. For this purpose, all three species were immobilized in biotinylated form on a polystyrene surface at streptavidin bound thereon. Since, during the panning rounds, oligomers and fibrils were added at the same time as competitors, these two species were immobilized in the monoclonal phage ELISA, likewise mixed. […] The streptavidin-coated microtiter plates were pre-washed as specified by the manufacturer. […] For immobilization, 100 μl were used per reaction tray and were incubated for 15 minutes at room temperature. After having washed the entire plate(s) twice with 150 μl 1×TBS per reaction tray, a blocking step with 150 μl 1×TBS/0.1% (v/v) Tween-20/1% (w/v) BSA was performed for an hour at room temperature. Three washing steps with 150 μl 1×TBS/0.1% (v/v) Tween-20 then followed per reaction tray. The amplified individual phage clones were mixed 1:1 with 1× TBS/1% (w/v) BSA. The antibody 6E10 was diluted 1:10,000 in 1×TBS/0.1% (v/v) Tween-20. […] After washing five times with 150 μl 1×TBS/0.1% (v/v) Tween-20 per reaction tray, 200 μl 1×TBS/0.1% (v/v) Tween-20 were placed in each reaction tray, and the plate(s) incubated for one hour at room temperature. The solutions were removed and replaced as follows: In all reaction trays that had been incubated previously with individual phage clone dilutions or the batch without phages, 100 μl of a phage antibody diluted 1:5,000 in 1×TBS/0.1% (v/v) Tween-20 were now added. The enzyme horseradish peroxidase (HRP) was coupled to this antibody and later served for the conversion of a substrate (TMB). […] At the same time, 100 μl of a second antibody diluted 1:1,000 in 1×TBS/0.1% (v/v) Tween-20 were now added to all reaction trays that had been previously incubated with the dilution of the 6E10 antibody, said second antibody being able to identify and bind to the 6E10 antibody originating from mice. This antibody is also HRP-coupled and thus allows a quantification of the binding of the first antibody to the immobilized target molecules or the plastics surface of the reaction tray. After one hour of incubation at room temperature, the plate(s) was/were washed 10 times with 150 μl 1×TBS/0.1% (v/v) Tween-20 per reaction tray. The signal was detected by adding the substrate 3,3′,5,5′-tetramethylbenzidine (TMB). […]

T1 sequence (P05067 672-713): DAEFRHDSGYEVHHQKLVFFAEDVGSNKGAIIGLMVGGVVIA

Row | Sequence | Difference in signal strength between Aβ1-42 monomers (100%) and Aβ1-42 oligomers and fibrils [%]
1 | DLRFSSLWKLSH (H-[dD][dL][dR][dF][dS][dS][dL][dW][dK][dL][dS][dH]-NH2; SMILES CC(C)C[C@@H](NC(=O)[C@H](N)CC(=O)O)C(=O)N[C@H](CCCNC(=N)N)C(=O)N[C@H](Cc1ccccc1)C(=O)N[C@H](CO)C(=O)N[C@H](CO)C(=O)N[C@H](CC(C)C)C(=O)N[C@H](Cc1c[nH]c2ccccc12)C(=O)N[C@H](CCCCN)C(=O)N[C@H](CC(C)C)C(=O)N[C@H](CO)C(=O)N[C@H](Cc1c[nH]cn1)C(N)=O) [Mosd19] | 50.299
2 | DRSKGDHRITQM (H-[dD][dR][dS][dK]G[dD][dH][dR][dI][dT][dQ][dM]-NH2; SMILES CC[C@@H](C)[C@@H](NC(=O)[C@@H](CCCNC(=N)N)NC(=O)[C@@H](Cc1c[nH]cn1)NC(=O)[C@@H](CC(=O)O)NC(=O)CNC(=O)[C@@H](CCCCN)NC(=O)[C@@H](CO)NC(=O)[C@@H](CCCNC(=N)N)NC(=O)[C@H](N)CC(=O)O)C(=O)N[C@@H](C(=O)N[C@H](CCC(N)=O)C(=O)N[C@H](CCSC)C(N)=O)[C@H](C)O) [Mosd18] | 49.181
3 | DWSSRVYRDPQT (H-[dD][dW][dS][dS][dR][dV][dY][dR][dD][dP][dQ][dT]-NH2; SMILES CC(C)[C@@H](NC(=O)[C@@H](CCCNC(=N)N)NC(=O)[C@@H](CO)NC(=O)[C@@H](CO)NC(=O)[C@@H](Cc1c[nH]c2ccccc12)NC(=O)[C@H](N)CC(=O)O)C(=O)N[C@H](Cc1ccc(O)cc1)C(=O)N[C@H](CCCNC(=N)N)C(=O)N[C@H](CC(=O)O)C(=O)N1CCC[C@@H]1C(=O)N[C@H](CCC(N)=O)C(=O)N[C@@H](C(N)=O)[C@H](C)O) [Mosd16] | 52.387
4 | EHWDFGQWWQQS (H-[dE][dH][dW][dD][dF]G[dQ][dW][dW][dQ][dQ][dS]-NH2; SMILES NC(=O)CC[C@@H](NC(=O)CNC(=O)[C@@H](Cc1ccccc1)NC(=O)[C@@H](CC(=O)O)NC(=O)[C@@H](Cc1c[nH]c2ccccc12)NC(=O)[C@@H](Cc1c[nH]cn1)NC(=O)[C@H](N)CCC(=O)O)C(=O)N[C@H](Cc1c[nH]c2ccccc12)C(=O)N[C@H](Cc1c[nH]c2ccccc12)C(=O)N[C@H](CCC(N)=O)C(=O)N[C@H](CCC(N)=O)C(=O)N[C@H](CO)C(N)=O) [Mosd14] | 56.526
5 | ERSQWGHRDPQS (H-[dE][dR][dS][dQ][dW]G[dH][dR][dD][dP][dQ][dS]-NH2; SMILES N=C(N)NCCC[C@@H](NC(=O)[C@H](N)CCC(=O)O)C(=O)N[C@H](CO)C(=O)N[C@H](CCC(N)=O)C(=O)N[C@H](Cc1c[nH]c2ccccc12)C(=O)NCC(=O)N[C@H](Cc1c[nH]cn1)C(=O)N[C@H](CCCNC(=N)N)C(=O)N[C@H](CC(=O)O)C(=O)N1CCC[C@@H]1C(=O)N[C@H](CCC(N)=O)C(=O)N[C@H](CO)C(N)=O) [Mosd17] | 54.492
6 | FSHSHHTWFTWN (H-[dF][dS][dH][dS][dH][dH][dT][dW][dF][dT][dW][dN]-NH2; SMILES C[C@H](O)[C@@H](NC(=O)[C@@H](Cc1ccccc1)NC(=O)[C@@H](Cc1c[nH]c2ccccc12)NC(=O)[C@H](NC(=O)[C@@H](Cc1c[nH]cn1)NC(=O)[C@@H](Cc1c[nH]cn1)NC(=O)[C@@H](CO)NC(=O)[C@@H](Cc1c[nH]cn1)NC(=O)[C@@H](CO)NC(=O)[C@H](N)Cc1ccccc1)[C@H](C)O)C(=O)N[C@H](Cc1c[nH]c2ccccc12)C(=O)N[C@H](CC(N)=O)C(N)=O) [Mosd7] | 57.960
7 | FSWSMVMPWPTA (H-[dF][dS][dW][dS][dM][dV][dM][dP][dW][dP][dT][dA]-NH2; SMILES CSCC[C@@H](NC(=O)[C@@H](CO)NC(=O)[C@@H](Cc1c[nH]c2ccccc12)NC(=O)[C@@H](CO)NC(=O)[C@H](N)Cc1ccccc1)C(=O)N[C@@H](C(=O)N[C@H](CCSC)C(=O)N1CCC[C@@H]1C(=O)N[C@H](Cc1c[nH]c2ccccc12)C(=O)N1CCC[C@@H]1C(=O)N[C@@H](C(=O)N[C@H](C)C(N)=O)[C@H](C)O)C(C)C) [Mosd21] | 46.030
8 | GQWDFRQWWQPC (H-G[dQ][dW][dD][dF][dR][dQ][dW][dW][dQ][dP][dC]-NH2; SMILES N=C(N)NCCC[C@@H](NC(=O)[C@@H](Cc1ccccc1)NC(=O)[C@@H](CC(=O)O)NC(=O)[C@@H](Cc1c[nH]c2ccccc12)NC(=O)[C@@H](CCC(N)=O)NC(=O)CN)C(=O)N[C@H](CCC(N)=O)C(=O)N[C@H](Cc1c[nH]c2ccccc12)C(=O)N[C@H](Cc1c[nH]c2ccccc12)C(=O)N[C@H](CCC(N)=O)C(=O)N1CCC[C@@H]1C(=O)N[C@H](CS)C(N)=O) [Mosd15] | 59.985
9 | HFWSWTSLSMTR (H-[dH][dF][dW][dS][dW][dT][dS][dL][dS][dM][dT][dR]-NH2; SMILES CSCC[C@@H](NC(=O)[C@@H](CO)NC(=O)[C@@H](CC(C)C)NC(=O)[C@@H](CO)NC(=O)[C@H](NC(=O)[C@@H](Cc1c[nH]c2ccccc12)NC(=O)[C@@H](CO)NC(=O)[C@@H](Cc1c[nH]c2ccccc12)NC(=O)[C@@H](Cc1ccccc1)NC(=O)[C@H](N)Cc1c[nH]cn1)[C@H](C)O)C(=O)N[C@@H](C(=O)N[C@H](CCCNC(=N)N)C(N)=O)[C@H](C)O) [Mosd8] | 68.616
10 | HLSWYWEKYLTS (H-[dH][dL][dS][dW][dY][dW][dE][dK][dY][dL][dT][dS]-NH2; SMILES CC(C)C[C@@H](NC(=O)[C@H](N)Cc1c[nH]cn1)C(=O)N[C@H](CO)C(=O)N[C@H](Cc1c[nH]c2ccccc12)C(=O)N[C@H](Cc1ccc(O)cc1)C(=O)N[C@H](Cc1c[nH]c2ccccc12)C(=O)N[C@H](CCC(=O)O)C(=O)N[C@H](CCCCN)C(=O)N[C@H](Cc1ccc(O)cc1)C(=O)N[C@H](CC(C)C)C(=O)N[C@@H](C(=O)N[C@H](CO)C(N)=O)[C@H](C)O) [Mosd9] | 68.016
11 | HNWSWEWWYNPN (H-[dH][dN][dW][dS][dW][dE][dW][dW][dY][dN][dP][dN]-NH2; SMILES NC(=O)C[C@@H](NC(=O)[C@H]1CCCN1C(=O)[C@@H](CC(N)=O)NC(=O)[C@@H](Cc1ccc(O)cc1)NC(=O)[C@@H](Cc1c[nH]c2ccccc12)NC(=O)[C@@H](Cc1c[nH]c2ccccc12)NC(=O)[C@@H](CCC(=O)O)NC(=O)[C@@H](Cc1c[nH]c2ccccc12)NC(=O)[C@@H](CO)NC(=O)[C@@H](Cc1c[nH]c2ccccc12)NC(=O)[C@@H](CC(N)=O)NC(=O)[C@H](N)Cc1c[nH]cn1)C(N)=O) [Mosd5] | 62.729
12 | HTWTHWFSWNVP (H-[dH][dT][dW][dT][dH][dW][dF][dS][dW][dN][dV][dP]-NH2; SMILES CC(C)[C@@H](NC(=O)[C@@H](CC(N)=O)NC(=O)[C@@H](Cc1c[nH]c2ccccc12)NC(=O)[C@@H](CO)NC(=O)[C@@H](Cc1ccccc1)NC(=O)[C@@H](Cc1c[nH]c2ccccc12)NC(=O)[C@@H](Cc1c[nH]cn1)NC(=O)[C@H](NC(=O)[C@@H](Cc1c[nH]c2ccccc12)NC(=O)[C@H](NC(=O)[C@H](N)Cc1c[nH]cn1)[C@H](C)O)[C@H](C)O)C(=O)N1CCC[C@@H]1C(N)=O) [Mosd10] | 71.902
13 | LSMNITTVHRWH (H-[dL][dS][dM][dN][dI][dT][dT][dV][dH][dR][dW][dH]-NH2; SMILES CC[C@@H](C)[C@@H](NC(=O)[C@@H](CC(N)=O)NC(=O)[C@@H](CCSC)NC(=O)[C@@H](CO)NC(=O)[C@H](N)CC(C)C)C(=O)N[C@@H](C(=O)N[C@@H](C(=O)N[C@@H](C(=O)N[C@H](Cc1c[nH]cn1)C(=O)N[C@H](CCCNC(=N)N)C(=O)N[C@H](Cc1c[nH]c2ccccc12)C(=O)N[C@H](Cc1c[nH]cn1)C(N)=O)C(C)C)[C@H](C)O)[C@H](C)O) [Mosd11] | 57.671
